{"source": "patent US8147817B2", "about": "“IL-33 in the treatment and diagnosis of diseases and disorders” (The Brigham and Women's Hospital, Inc., priority 2006, dated 2012)", "molecules": {"B1": {"name": "IL-33: recombinant mature rat IL-33, starting with amino acid 109 of the full-length protein, N-terminal His tag (GenBank BC081993) (protein)", "chain": "SIQGTSLLTESCALSTYNDQSVSFVLENGCYVINVEDCGKNQEKDKVLLRYYESSFPAQSGDGVDGKKLMVNMSPIKDTDIWLNANDKDYSVELQKGDVSPPDQAFFVLHKKSSDFVSFECKNLPGTYIGVKDNQLALVEENDESCNNIMFKLSKM", "modifications": "left off: small tags and cut ends"}}, "key": {"[1]": {"test_system": "NF-κB", "assay": "NF-κB nuclear binding activity by EMSA in cardiomyocytes", "format": "cell-based, rat", "description": "Electromobility shift assays were performed as described previously (8). Cells were lysed for 10 minutes on ice in a solution containing 10 mM HEPES (pH 7.6), 15 mM KCl, 2 mM MgCl2, 0.1 mM ethylenediamine tetraacetic acid (EDTA), 1 mM dithiothreitol (DTT), 0.5 mM phenylmethylsulphonylfluoride (PMSF), 10 μg/mL leupeptin and 0.2% Nonident P-40. Dishes were gently scraped, and nuclei were collected by centrifugation at 800 g for 30 seconds and then suspended in a solution of 50 mM HEPES, 400 mM KCl, 0.1 mM EDTA, 10% glycerol, 1 mM DTT, 0.5 mM PMSF and 10 μg/mL leupeptin. The mixture was incubated on ice for 30 minutes, and the supernatant was collected after centrifugation for 15 minutes at 400 g. Binding reactions were performed with 5 or 10 μg of nuclear protein in 10 mM Tris, 1 mM DTT, 1 mM EDTA, 5% glycerol, 0.1% Triton X-100, 1 mg poly(dIdC), 5 μg bovine serum albumin (BSA) and approximately 10,000 cpm of −32P-labeled oligonucleotide. The binding reactions for AP-1 activity also contained 5 mM MgCl2. Control reaction mixtures contained a 100-fold excess of unlabeled oligonucleotide and were incubated with nuclear extracts of IL-1β-treated cells. DNA complexes were separated on a 4% nondenaturing polyacrylamide gel in Tris-HCl (6.7 mM), EDTA (1 mM) and ammonium acetate (3.3 mM). The oligonucleotides contained the NF-B binding site (sequence: 5′-AGTTGAGGGGACTTTCCCAGGC-3′ (SEQ ID NO: 15)) and were labeled by standard procedures.\nEMSAs were performed as described previously (47). Cells were lysed for 10 minutes on ice in 10 mM HEPES (pH 7.6), 15 mM KCl, 2 mM MgCl2, 0.1 mM EDTA, 1 mM DTT, 0.5 mM PMSF, 10 μg/mL leupeptin, and 0.2% Nonident P-40. Dishes were gently scraped, and nuclei were collected by centrifugation at 800 g for 30 seconds and then suspended in a solution of 50 mM HEPES, 400 mM KCl, 0.1 mM EDTA, 10% glycerol, 1 mM DTT, 0.5 mM PMSF, and 10 μg/mL leupeptin. The mixture was incubated on ice for 30 minutes, and the supernatant was collected after centrifugation for 15 minutes at 400 g. Binding reactions were performed with 5 or 10 μg of nuclear protein in 10 mM Tris, 1 mM DTT, 1 mM EDTA, 5% glycerol, 0.1% Triton X-100, 1 mg poly(dIdC), […] BSA, and 10,000 cpm of [^32P]-labeled oligonucleotide. The specific NF-κB consensus oligonucleotides were 5′-[…]-3′ (SEQ ID NO: 15) and 5′-[…]-3′ (SEQ ID NO: 18) (Promega). Positive and negative control mixtures as well as specific competition mixtures were made as recommended by the manufacturer's instructions, using binding buffer with positive samples, labeled NF-κB oligonucleotides and 10-fold excess of cold NF-κB consensus oligonucleotides for specific competition. DNA complexes were separated on a 6% nondenaturing polyacrylamide gel in Tris-HCl (6.7 mM), EDTA (1 mM), and ammonium acetate (3.3 mM)."}, "[2]": {"test_system": "cardiomyocytes", "assay": "Oxidative stress assay (DCFDA, ROS generation)", "format": "cell-based, rat", "details": "co-treatment with IL-33", "description": "An assay to detect oxidative stress was performed as reported previously (48). Cardiomyocytes were incubated with 2,7-dichlorodihydrofluorecein diacetate (DCFDA) for 45 min, washed in phosphate-buffered saline, and fluorescence intensity was measured using a fluorometer (PerkinElmer Life Science) at 595 nm."}}, "note": "“Also recorded” adds a separate entry of the source."}
{"molecule": "B1", "values": [{"measurement": "reduction of NF-κB nuclear binding activity induced by PDGF-BB or TNF-α", "setting": "[1]; PDGF-BB (10 ng/ml) or TNF-α (10 ng/ml), IL-33 10 ng/ml", "result": "not observed; also recorded: did not block"}, {"measurement": "NF-κB activation by agent alone", "setting": "[1]; cardiomyocytes, angiotensin-II 1 μM, phenylephrine 50 μM, IL-33 10 ng/ml", "result": "independently activated NF-κB in both cell types; also recorded: mildly activated NF-κB"}, {"measurement": "angiotensin-II- or phenylephrine-induced NF-κB activation", "setting": "[1]; cardiomyocytes, co-treatment with IL-33 10 ng/ml", "result": "markedly attenuated"}, {"measurement": "ROS generation in the presence of angiotensin-II or phenylephrine", "setting": "[2]", "result": "significantly decreased the generation of ROS; also recorded: inhibited by IL-33 in cardiomyocytes"}]}
